One may read the IC50 as the concentration at which inhibition is half-maximal.

Numbering of substitutions follows the chain as printed. “And” between values parts separate entries of the source, which are not always exact repeats. Equal values may be shown once. Where no end group is shown, it is not given here. Where only a bound is given, the exact number is not on record here.

In one experiment the test system is guinea pig ileum. Particulars: J Pharmacol Exp Ther. 1999; cited from earlier work.
In another experiment the target is Kv1.3 (Homo sapiens, UniProt P22001). Kind of experiment: Two electrode voltage clamp, Xenopus oocytes, Kv1.3. The format is cell-based. Set-up: expressed in transfected cells; host or cells: Xenopus laevis oocytes (cRNA injection). The text has this: Thereafter, MK-1 was synthesized. […] The blocking of […] by MK-1 is represented by filled circles; the blocking of Kv1.2 by MK-1 is represented by filled diamonds; and the blocking of Kv1.1 by MK-1 is represented by filled triangles.
Chain of Kv1.3 (P22001 whole entry): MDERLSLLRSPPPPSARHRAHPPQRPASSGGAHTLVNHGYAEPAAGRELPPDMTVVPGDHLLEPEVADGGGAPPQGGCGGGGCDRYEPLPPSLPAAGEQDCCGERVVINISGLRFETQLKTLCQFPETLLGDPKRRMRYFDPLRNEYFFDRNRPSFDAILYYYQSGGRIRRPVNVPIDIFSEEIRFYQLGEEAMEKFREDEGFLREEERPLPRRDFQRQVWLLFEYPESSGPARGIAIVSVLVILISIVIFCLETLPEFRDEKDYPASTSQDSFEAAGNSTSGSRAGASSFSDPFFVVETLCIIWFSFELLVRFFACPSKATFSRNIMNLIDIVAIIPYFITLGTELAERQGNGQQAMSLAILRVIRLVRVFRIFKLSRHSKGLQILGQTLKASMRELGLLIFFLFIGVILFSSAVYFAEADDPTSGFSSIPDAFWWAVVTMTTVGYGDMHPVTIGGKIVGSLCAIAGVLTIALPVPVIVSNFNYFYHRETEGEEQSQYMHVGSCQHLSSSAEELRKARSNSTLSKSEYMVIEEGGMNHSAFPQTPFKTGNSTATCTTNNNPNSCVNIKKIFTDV
(§1) To examine the effect of mokatoxin-1 on activity of potassium ion channels, cDNA encoding Rattus Kv1.1 (NCBI accession number NM_173095), Rattus Kv1.2 (NM_012970), Homo Kv1.3 (NM_002232), or Mus BK (NM_010610) were subcloned into oocyte expression vectors based on PCR3.1 and pGEM. cRNA synthesis was performed with T7 polymerase and the mMessageMachine Kit (Ambion, Austin, Tex.) according to manufacturers instructions. cRNA concentrations were determined spectroscopically. For two electrode voltage clamp recordings oocytes were extracted from Xenopus laevis and defoliculated with Collagenase Type 2 (Worthington, Lakewood, N.J.). Oocytes were maintained in ND91 solution containing 2 mM KCl, 91 mM NaCl, 1 mM MgCl2, 1.8 mM CaCl2, and 5 mM HEPES, pH 7.5, supplemented with 1% Penicillin/Streptomycin (Cellgro, Hemdon, Va.) and 0.1% Gentamycin sulfate (Gibco, Grand Island, N.Y.)) at 16° C. Stage V and VI oocytes were injected with 8 pg to 4 ng cRNA, and currents recorded 1 to 4 days later.
(§2) For dose-response measurements of toxin block of Kv1.1, Kv1,2, or Kv1.3 peak currents were recorded during a 500 ms step to 0 mV from a holding voltage of −100 mV, followed by a 200 ms step to −135 mV every 30 s. To determine the kinetics of toxin block oocytes were held at −100 mV and stepped to the test voltage of 0 mV for 100 ms followed by a 200 ms duration step to −135 mV every 2 s. BK currents were recorded during a 50 ms step to +60 mV from a holding voltage of −80 mV, followed by a 40 ms step to −100 mV every 3 s. The perfusion solution contained 2 mM KCl, 96 mM NaCl, 1 mM MgCl2, 1.8 mM CaCl2, 5 mM HEPES, pH 7.5 and 0.1% fatty acid ultra-free BSA fraction V (Roche Diagnostics Corporation, Indianapolis, Ind.). Data acquisition and processing was performed with an oocyte clamp OC-725B (Warner Instruments Corporation, Hamden, Conn.), pCLAMP (Axon, Sunnyvale, Calif.), IGOR Pro (WaveMetrics, Lake Oswego, Oreg.), and Origin6.1 (OriginLab Corporation, Northampton, Mass.) softwares. The equilibrium dissociation rates (KD) for block of Kv1.1, Kv1.2, and Kv1.3 by mokatoxin-1 were determined by fitting the dose-response data and kon and koff were calculated as described by Goldstein and Miller, 1993 (Biophys J. 1993 65 (4):1613-1619).

The target in a further experiment is T1, Kv1.1 (Rattus norvegicus, UniProt P10499).
T1 construct: expressed in transfected cells; host or cells: Xenopus laevis oocytes (cRNA injection)
T1 sequence (P10499 whole entry): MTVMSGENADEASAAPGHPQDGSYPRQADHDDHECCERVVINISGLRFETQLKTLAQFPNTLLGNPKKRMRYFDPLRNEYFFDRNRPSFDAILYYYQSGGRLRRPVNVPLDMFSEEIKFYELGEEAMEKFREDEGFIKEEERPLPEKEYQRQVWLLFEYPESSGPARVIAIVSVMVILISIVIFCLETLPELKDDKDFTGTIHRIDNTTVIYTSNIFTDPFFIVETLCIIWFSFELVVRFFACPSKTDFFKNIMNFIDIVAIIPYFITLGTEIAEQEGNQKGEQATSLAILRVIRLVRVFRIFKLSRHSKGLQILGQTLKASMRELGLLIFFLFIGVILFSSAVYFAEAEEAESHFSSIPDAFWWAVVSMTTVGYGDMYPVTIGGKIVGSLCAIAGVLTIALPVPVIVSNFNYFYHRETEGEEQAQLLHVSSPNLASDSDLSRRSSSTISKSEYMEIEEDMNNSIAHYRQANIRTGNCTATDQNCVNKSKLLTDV
Kind of experiment: Two electrode voltage clamp, Xenopus oocytes, Kv1.1. It counts as cell-based. The method, then: as §1, §2
A general note: In two-electrode clamp one electrode senses voltage and the other passes current.

The next experiment concerns the target T2, BK (Mus musculus, UniProt Q08460).
T2 construct: expressed in transfected cells; host or cells: Xenopus laevis oocytes (cRNA injection)
The experiment is described as follows: Two electrode voltage clamp, Xenopus oocytes, BK. The format is cell-based. The method, then: as §1, §2

Another experiment deals with T3, Kv1.2 (Rattus norvegicus, UniProt P63142).
T3 construct: expressed in transfected cells; host or cells: Xenopus laevis oocytes (cRNA injection)
T3 sequence (P63142 whole entry): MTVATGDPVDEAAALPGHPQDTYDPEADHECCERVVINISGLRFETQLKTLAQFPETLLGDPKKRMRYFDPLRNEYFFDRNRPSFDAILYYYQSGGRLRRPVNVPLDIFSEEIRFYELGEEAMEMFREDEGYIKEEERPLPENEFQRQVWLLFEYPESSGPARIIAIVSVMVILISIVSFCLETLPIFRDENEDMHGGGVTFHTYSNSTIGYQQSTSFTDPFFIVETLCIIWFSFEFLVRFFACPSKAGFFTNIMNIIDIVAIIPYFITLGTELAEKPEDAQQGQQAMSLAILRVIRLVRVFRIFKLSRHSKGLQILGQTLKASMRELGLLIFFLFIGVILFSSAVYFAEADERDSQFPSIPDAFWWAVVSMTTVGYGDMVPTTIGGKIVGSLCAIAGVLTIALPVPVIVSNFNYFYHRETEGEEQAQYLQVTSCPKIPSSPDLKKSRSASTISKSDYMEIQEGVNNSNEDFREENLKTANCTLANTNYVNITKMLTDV
The experiment is described as follows: Two electrode voltage clamp, Xenopus oocytes, Kv1.2. The format is cell-based. The method, then: as §1, §2

Experiment [1] concerns the target KcsA carrying a segment of the Kv1.3 pore loop (KcsA-1.3).
In experiment [2] the target is Kv1.3 K+ channel, wild-type, species not stated.
The target of experiment [3] is KcsA carrying a segment of the Kv1.3 pore loop (KcsA-1.3). Kind of experiment: library panning on immobilised KcsA-1.3.
For experiment [4] the target is unchanged. This is another data set of the same source.
Experiment [5] concerns the target Kv1.2 K+ channel, species not stated.
Experiment [6] deals with Kv1.1 K+ channel, species not stated.
For experiment [7], the target named is BK channel, species not stated.
Experiment [8] concerns the target Kv1.3 K+ channel, wild-type, species not stated. The source holds these as a separate data set.
The target of experiment [9] is human Kv1.3 (Homo) (UniProt P22001).
Experiment [10] addresses Mus BK (mouse big conductance calcium-activated K channel) (Mus) (UniProt Q08460).
The next experiment concerns the target Rattus Kv1.2 (Rattus) (UniProt P63142).
In the next experiment the target is Rattus Kv1.1 (Rattus) (UniProt P10499).
The target of experiment [11] is human Kv1.3 (Homo) (UniProt P22001). This is another data set of the same source.
Experiment [12] has as its target Kv1.3 K+ channel, wild-type, species not stated. Kind of experiment: phage panning on COS cells.
The target is the same in experiment [13]. This is another data set of the same source.
For experiment [14] the target is unchanged. The source holds these as a separate data set.
The target is the same in experiment [15]. Kind of experiment: phage panning on HEK cells.
In experiment [16] the target is KcsA carrying a segment of the Kv1.3 pore loop (KcsA-1.3). This is another data set of the same source.
For experiment [17], the target named is Kv1.3 K+ channel, wild-type, species not stated. The source holds these as a separate data set.
The target is the same in experiment [18]. The experiment is described as follows: one round of panning of KTX and nonspecific phages on cells expressing Kv1.3.
In experiment [19] the target is KcsA carrying a segment of the Kv1.3 pore loop (KcsA-1.3). Kind of experiment: panning of a 1:99 mixture of Shk and Camel VHH phages on KcsA-1.3, n = 17-20.
The target in another experiment is Rattus Kv1.1 (Rattus, UniProt P10499). Kind of experiment: cell-based or functional assay.
In experiment [20] the target is Mus BK (mouse big conductance calcium-activated K channel) (Mus, UniProt Q08460). The experiment is described as follows: cell-based or functional assay.
The target of another experiment is human Kv1.3 (Homo, UniProt P22001). Kind of experiment: cell-based or functional assay.
The target of a further experiment is Rattus Kv1.2 (Rattus, UniProt P63142). The experiment is described as follows: cell-based or functional assay.

T2 sequence (Q08460 whole entry): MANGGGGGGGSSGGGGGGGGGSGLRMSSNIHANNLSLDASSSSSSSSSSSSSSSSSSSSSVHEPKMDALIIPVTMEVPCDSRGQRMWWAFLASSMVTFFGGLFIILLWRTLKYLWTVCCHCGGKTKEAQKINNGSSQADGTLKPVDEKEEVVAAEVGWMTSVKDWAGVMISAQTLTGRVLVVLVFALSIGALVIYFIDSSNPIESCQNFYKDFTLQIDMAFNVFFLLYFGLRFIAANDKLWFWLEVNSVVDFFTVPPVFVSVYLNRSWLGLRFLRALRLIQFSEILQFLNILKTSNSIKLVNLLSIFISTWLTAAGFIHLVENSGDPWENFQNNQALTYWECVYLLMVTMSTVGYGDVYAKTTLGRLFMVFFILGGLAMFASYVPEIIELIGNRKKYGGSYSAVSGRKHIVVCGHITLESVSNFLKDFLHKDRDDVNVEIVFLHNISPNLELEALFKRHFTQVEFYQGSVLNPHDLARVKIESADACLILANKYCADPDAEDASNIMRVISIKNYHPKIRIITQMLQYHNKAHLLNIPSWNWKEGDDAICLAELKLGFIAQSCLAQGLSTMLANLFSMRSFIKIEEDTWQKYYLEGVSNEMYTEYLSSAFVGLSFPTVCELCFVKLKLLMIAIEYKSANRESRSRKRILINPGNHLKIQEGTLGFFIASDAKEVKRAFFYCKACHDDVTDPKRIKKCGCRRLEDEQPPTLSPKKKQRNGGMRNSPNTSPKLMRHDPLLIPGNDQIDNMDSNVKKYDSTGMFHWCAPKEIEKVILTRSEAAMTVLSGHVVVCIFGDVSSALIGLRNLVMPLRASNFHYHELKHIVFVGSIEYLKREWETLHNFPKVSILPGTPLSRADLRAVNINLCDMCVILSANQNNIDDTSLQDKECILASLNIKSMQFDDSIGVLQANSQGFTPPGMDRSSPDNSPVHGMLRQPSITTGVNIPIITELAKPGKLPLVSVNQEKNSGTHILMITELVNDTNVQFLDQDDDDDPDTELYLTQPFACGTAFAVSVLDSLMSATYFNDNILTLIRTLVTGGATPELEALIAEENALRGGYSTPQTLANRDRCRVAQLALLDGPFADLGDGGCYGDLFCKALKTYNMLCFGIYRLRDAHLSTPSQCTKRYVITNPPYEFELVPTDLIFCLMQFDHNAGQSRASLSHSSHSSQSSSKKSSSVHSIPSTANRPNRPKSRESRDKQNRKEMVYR

`CC[C@H](C)[C@@H]1NC(=O)[C@@H]2CSSC[C@@H]3NC(=O)[C@H](CCCCN)NC(=O)[C@H](CCCNC(=N)N)NC(=O)[C@H](CC(N)=O)NC(=O)[C@H](CCSC)NC(=O)[C@H](CSSC[C@H](NC(=O)[C@H](CO)NC(=O)[C@@H](NC(=O)[C@H](CC(N)=O)NC(=O)[C@@H](NC(=O)[C@@H]4CCCN4C(=O)[C@@H](NC(=O)CN)C(C)C)[C@@H](C)CC)C(C)C)C(=O)N[C@@H]([C@@H](C)O)C(=O)NCC(=O)N[C@@H](CO)C(=O)N4CCC[C@H]4C(=O)N[C@@H](CCC(N)=O)C(=O)N2)NC(=O)[C@H](CCCCN)NC(=O)CNC(=O)[C@H](Cc2ccccc2)NC(=O)[C@H](CCCNC(=N)N)NC(=O)[C@H](CCSC)NC(=O)CNC(=O)[C@H](C)NC(=O)[C@H](CC(=O)O)NC(=O)[C@H](CCCCN)NC(=O)[C@H](CSSC[C@@H](C(=O)N[C@H](C(=O)N2CCC[C@H]2C(=O)N[C@@H](CCCCN)C(=O)O)[C@@H](C)O)NC(=O)[C@H](Cc2c[nH]cn2)NC3=O)NC(=O)[C@@H]2CCCN2C(=O)[C@H](CCCCN)NC1=O` [AgTX2, agitoxin-2]: the ileum contractions entry in the experiment with guinea pig ileum is reported as “contractions”. For the same molecule, the IC50 on Kv1.3 was 0.004 nM; on Kv1.1, 0.04 nM; against BK, around 1150 nM; against Kv1.2, 26.8 nM.
With mokatoxin-1-phage, the % of the phage isolated after two rounds of selection in experiment [1] was found to be 60%. Moreover, the % of phage after the 2nd panning in experiment [2] stood at 15%. In addition, the % of the eluted phage after two rounds of panning in experiment [3] was found to be 16.6%.
Take “fasciculin-2 phage (from UniProt P0C1Z0)”: the Output (% Ligands) in experiment [4] came to 0%.
With mokatoxin-1 (peptide), the approximate IC50 in experiment [5] was 680 nM; in experiment [6] it was above 1000 nM; in experiment [7], above 1000 nM; in experiment [8], 3 nM. Further, the IL-2, TNF-α and IFN-γ secretion by CD3/CD28 activated human T cells (ELISA) in the experiment with human Kv1.3 (Homo) [9] was found to be 50%. For the same molecule, the Ki (block of channel current) in experiment [10] is above 1000 nM; in the experiment with Rattus Kv1.2 (Rattus), 620 nM; with Rattus Kv1.1 (Rattus) it was above 1000 nM; with human Kv1.3 (Homo) [11], 1 nM. The Koff (block of channel current) with Rattus Kv1.2 (Rattus) was 0.16 [s]^-1; in the experiment with human Kv1.3 (Homo) [11] it was 0.059 [s]^-1. For the same molecule, the Kon (block of channel current) with Rattus Kv1.2 (Rattus) is 260000 [M · s]^-1; with human Kv1.3 (Homo) [11] it was 3.6e+07 [M · s]^-1.
For Kaliotoxin-1 (KTX) (peptide), the approximate IC50 in experiment [5] is 1.4 nM; in experiment [6], 0.1 nM; in experiment [7] it was 5 nM; in experiment [8] it was 0.5 nM.
Turning to Kaliotoxin-1 phage (KTX-phage), the fold enrichment (Kv1.3 transfected against vector cells) in [12] came out at 10 fold; in experiment [15], 20 fold. For the same molecule, in [13], the Kv1.3 current, whole-cell patch-clamp was determined as 35%. The molecule also had an Output (% Ligands) in [4] of 100%. In [14], this molecule had a % of recovered phage, 2nd round of 0%. This molecule displayed a % of recovered phage, 3rd round in experiment [14] of 58%. Moreover, the % of phage after the 2nd panning in [2] was determined as 40%. The Fold Enrichment in [16] is 3.6 fold; in [18], 4.3 fold and 5.2 fold. Further, the OUTPUT KTX (%) in experiment [17] was 22% and 30% and 26%.
On to “Shk phage (sea anemone Stichodactyla helianthus ShK toxin on phage)”, for which the % phages, OUTPUT in experiment [19] was determined as 20%.
Turning to “Dendroaspis natriuretic peptide (DNP) phage (from UniProt P28374)”, the Output (% Ligands) in experiment [4] was determined as 0%.
On to charybdotoxin (CTX) (peptide), for which the approximate IC50 in [5] was 5.6 nM; in experiment [6], 1500 nM; in [7] it was 3 nM; in [8], 2.5 nM.
Regarding agitoxin-2 (AgTx2) (peptide), the approximate IC50 in experiment [5] stood at 26.8 nM; in experiment [6] it was 0.04 nM; in experiment [7] it was 1150 nM; in experiment [8] it was 0.004 nM.
“sarafotoxin S6b phage (from UniProt P13208)” had an Output (% Ligands) in experiment [4] of 0%.

B1: charybdotoxin (CTX) (peptide)
peptide: ZFTNVSCTTSKECWSVCQRLHNTSRGKCMNKKCRCYS
modifications: Z printed as first residue in Table 2
As to B1, the results for the “Ki (block of channel current)” value (with Rattus Kv1.1; in [20]) were above 1000 nM and 5 nM, respectively.

B2: Kaliotoxin-1 (KTX) (peptide)
peptide: GVEINVKCSGSPQCLKPCKDAGMRFGKCMNRKCHCTPK
As to B2, the “Ki (block of channel current)” value with human Kv1.3 is 0.008 nM; in the experiment with Rattus Kv1.2, 20 nM; in the experiment with Rattus Kv1.1 it was 1.1 nM; in experiment [20], 1.6 nM. Further, the “Koff (block of channel current)” value with human Kv1.3 is 0.007 [s]^-1; in the experiment with Rattus Kv1.2, 0.21 [s]^-1; with Rattus Kv1.1, 0.009 [s]^-1; in [20] it was 0.0211 [s]^-1. Besides, the “Kon (block of channel current)” value is 8e+08 [M · s]^-1 with human Kv1.3, 1.3e+07 [M · s]^-1 with Rattus Kv1.2, 3e+07 [M · s]^-1 with Rattus Kv1.1 and 21000 [M · s]^-1 in experiment [20].

B3: agitoxin-2 (AgTx2) (peptide)
peptide: B2 peptide with E3P, K7S, S9T, L15I
modifications: ends and bridges not checked; cysteine pairing not given here
Take B3: the “Ki (block of channel current)” value worked out at 0.041 nM with human Kv1.3, 3.4 nM with Rattus Kv1.2 and 0.17 nM with Rattus Kv1.1.
